From patent US11426422B2, “SHP2 inhibitors and methods of use thereof” (Research Development Foundation, priority 2018, dated 2022)
Where no end group is shown, it is not given here. [ ]: non-standard residue; d: D form. pY = N[C@@H](Cc1ccc(OP(=O)(O)O)cc1)C(=O)O; pS = N[C@@H](COP(=O)(O)O)C(=O)O

Columns and labels:
AP2M1 (residues 160-435) = molecular target: T1, AP2M1 (residues 160-435) (Homo sapiens, UniProt Q96CW1); assay: in vitro peptide pull-down of AP2M1 with IRS1 peptides; format: binding; settings: peptide beads pull-down, SDS-PAGE, Coomassie
T1 construct: The AP2M1 fragment (residues 160-435) was cloned into a modified pET28a; His6 (N, cleaved yes); made in house; host or cells: E. coli BL21(DE3)
T1 sequence (Q96CW1 160-435): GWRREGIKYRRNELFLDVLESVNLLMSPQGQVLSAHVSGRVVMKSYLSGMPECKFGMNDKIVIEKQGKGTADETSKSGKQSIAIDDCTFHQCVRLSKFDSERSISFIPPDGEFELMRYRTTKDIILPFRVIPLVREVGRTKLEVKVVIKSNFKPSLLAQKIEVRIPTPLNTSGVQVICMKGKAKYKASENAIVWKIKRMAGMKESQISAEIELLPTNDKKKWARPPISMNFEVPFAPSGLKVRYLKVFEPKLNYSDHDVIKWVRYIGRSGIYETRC
Experimental: FIGS. 2A-I. The MAPK pathway and SHP2 promote insulin-activated IR endocytosis. (FIG. 2A) HepG2 cells expressing IR-GFP WT were starved, treated with the indicated inhibitors for 2 h, treated without or with 100 nM insulin for 20 min, and stained with anti-GFP (IR; green) and DAPI (blue). See also FIG. 7A for representative images. Quantification of the ratios of PM and IC IR-GFP signals of cells was shown (mean±SD; *p<0.0001). (FIG. 2B) Binding of IRS1 peptides to AP2M1 (residues 160-435). Input and proteins bound to IRS1-peptide beads were analyzed by SDS-PAGE and stained with Coomassie (CBB). The relative band intensities are shown below (mean±SD; n=4 independent experiments). (FIG. 2C) ITC analysis of binding between IRS1 peptides and AP2M1 (residue 160-435), with the Kd indicated. (FIG. 2D) The IRS1 peptides were incubated with active SHP2 for the indicated durations, spotted onto membranes, and detected with the anti-pY612-IRS1 antibody. (FIG. 2E) Quantification of the relative SHP2 activity in FIG. 2D (mean±SD; n=4 independent experiments; *p<0.0001). (FIG. 2F) Model of the regulation of insulin-activated IR endocytosis by a phosphorylation switch on IRS1/2. Insulin-bound IR phosphorylates itself and IRS1/2, and activates the PI3K-AKT and MAPK pathways. SHP2 acts upstream of RAS-RAF and promotes the activation of MAPK pathway. p31^comet binds to the IR-bound MAD2 and blocks IR-AP2 association to prevent premature IR endocytosis. In feedback regulation, activated ERK1/2 phosphorylate S616 and other sites on IRS1. […]
For GST pull-down assays of in vitro translated (IVT) IRS1 proteins, beads bound to GST-AP2M1 or GST were incubated with IVT products diluted in the cell lysis buffer at 4° C. for 2 h. After incubation and washing, proteins bound to beads were eluted with the SDS loading buffer, resolved with SDS-PAGE, and detected with Coomassie staining or immunoblotting with the appropriate antibodies. […]

SHP2 = molecular target: T2, SHP2 (Homo sapiens, UniProt Q06124); assay: in vitro phosphatase assay, dephosphorylation of IRS1 peptides by active SHP2; format: biochemical; settings: doubly versus singly phosphorylated IRS1 peptide; active SHP2 2.9 μM, peptide 2.6 mM, 37° C.
T2 construct: purchased SignalChem
T2 sequence (Q06124 1-593): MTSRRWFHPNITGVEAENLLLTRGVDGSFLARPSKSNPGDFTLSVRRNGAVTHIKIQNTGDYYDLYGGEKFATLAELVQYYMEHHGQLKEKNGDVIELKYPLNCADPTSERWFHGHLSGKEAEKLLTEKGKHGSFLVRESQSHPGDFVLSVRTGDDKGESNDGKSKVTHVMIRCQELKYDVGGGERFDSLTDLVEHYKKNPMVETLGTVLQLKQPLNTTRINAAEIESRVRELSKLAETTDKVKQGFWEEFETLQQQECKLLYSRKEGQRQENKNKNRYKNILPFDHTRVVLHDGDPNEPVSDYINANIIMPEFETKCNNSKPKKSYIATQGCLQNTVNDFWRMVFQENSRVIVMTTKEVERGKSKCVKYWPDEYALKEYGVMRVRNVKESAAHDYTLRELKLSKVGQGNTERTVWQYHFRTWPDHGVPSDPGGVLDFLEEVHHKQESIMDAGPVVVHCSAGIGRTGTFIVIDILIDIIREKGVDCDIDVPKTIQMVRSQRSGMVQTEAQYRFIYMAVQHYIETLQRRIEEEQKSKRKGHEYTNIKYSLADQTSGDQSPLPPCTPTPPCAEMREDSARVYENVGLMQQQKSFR
Text: To assess whether serine phosphorylation (pS616) of the YMPMS motif (SEQ ID NO:13) promotes dephosphorylation of pY612 by SHP2, its dephosphorylation kinetics were examined. […] Decreased IRS1 pS616 has been correlated with increased pY608 in vivo (Bard-Chapeau et al., 2005), and therefore, aside from directly augmenting the IRS1-AP2M1 interaction, ERK1/2-dependent phosphorylation of IRS1 indirectly promotes AP2M1 binding through enhancing the dephosphorylation of IRS1 by SHP2. Consistent with a role of ERK1/2-dependent phosphorylation of IRS1 in IR endocytosis, expression of the RNAi-resistant IRS1 phospho-mimicking mutant (3SD), but not the phospho-deficient mutant (3SA), restored IR endocytosis in 293FT cells depleted of IRS1/2 (FIG. 1G and FIG. 6E).
Active SHP2 (2.9 μM, SignalChem) diluted in the phosphatase dilution buffer (50 mM imidazole, pH 7.2, 0.2% 2-mercaptoethanol, 65 ng/μl BSA) was incubated with IRS1 peptides (2.6 mM) at 37° C. for the indicated time points. Two microliters of reaction products were spotted onto 0.45 m nitrocellulose membrane (BioRad) and dried completely. The membrane was blocked with 5% nonfat milk in TBS for 1 h, and washed once with TBS-T (0.02% Tween 20). […] The membranes were scanned with the Odyssey Infrared Imaging System (LI-COR, Lincoln, Nebr.) for quantification.

- binding to AP2M1 (AP2M1 (residues 160-435)): abolished AP2M1 binding
- dephosphorylation of pY612 by SHP2 (SHP2): promoted pY612 dephosphorylation by SHP2
Substance: pYMPMpS: doubly phosphorylated IRS1 peptide CHTDDGpYMPMpSPGVA (SEQ ID NO:16) (CHTDDG[pY]MPM[pS]PGVA)
